From patent publication US20260295010 (published 2026)

What was measured:
IL-12RB2-hFc = target: T1, IL-12RB2-hFc (human, UniProt Q99665); test: SPR, 25C
T1 chain: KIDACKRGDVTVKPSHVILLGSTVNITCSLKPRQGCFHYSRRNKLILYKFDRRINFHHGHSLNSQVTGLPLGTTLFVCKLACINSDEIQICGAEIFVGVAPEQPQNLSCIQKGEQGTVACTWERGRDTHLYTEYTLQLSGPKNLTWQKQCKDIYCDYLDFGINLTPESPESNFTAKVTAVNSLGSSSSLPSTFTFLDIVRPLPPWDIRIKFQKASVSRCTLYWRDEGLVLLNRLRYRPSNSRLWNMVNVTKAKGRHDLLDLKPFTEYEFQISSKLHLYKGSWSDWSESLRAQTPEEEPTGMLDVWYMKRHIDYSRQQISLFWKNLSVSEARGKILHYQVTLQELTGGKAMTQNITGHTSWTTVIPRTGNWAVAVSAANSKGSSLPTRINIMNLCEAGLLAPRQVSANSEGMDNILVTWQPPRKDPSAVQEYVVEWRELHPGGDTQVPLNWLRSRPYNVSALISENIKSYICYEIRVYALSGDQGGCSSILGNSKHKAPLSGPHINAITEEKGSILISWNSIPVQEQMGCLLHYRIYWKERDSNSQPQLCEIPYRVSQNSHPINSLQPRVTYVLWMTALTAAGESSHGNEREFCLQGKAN

IL-12RB1-hFc = IL-12RB1-hFc (human, UniProt P42701); test: SPR, 25C

B1: IL-12p70 H195A (protein)
chain 1: MIWELKKDVYVVELDWYPDAPGEMVVLTCDTPEEDGITWTLDQSSEVLGSGKTLTIQVKEFGDAGQYTCHKGGEVLSHSLLLLHKKEDGIWSTDILKDQKEPKNKTFLRCEAKNYSGRFTCWWLTTISTDLTFSVKSSRGSSDPQGVTCGAATLSAERVRGDNKEYEYSVECQEDSACPAAEESLPIEVMVDAVAKLKYENYTSSFFIRDIIKPDPPKNLQLKPLKNSRQVEVSWEYPDTWSTPHSYFSLTFSVQVQGKSKREKKDRVFTDKTSATVICRKNASISVRAQDRYYSSSWSEWASVPCSGGGSHHHHHH
chain 2: MRNLPVATPDPGMFPSLHHSQNLLRAVSNMLQKARQTLEFYPCTSEEIDHEDITKDKTSTVEACLPLELTKNESCLNSRETSFITNGSSLASRKTSFMMALCLSSIYEDLKMYQVEFKTMNAKLLMDPKRQIFLDQNMLAVIDELMQALNFNSETVPQKSSLEEPDFYKTKIKLCILLHAFRIRAVTIDRVMSYLNAS
- Kd (IL-12RB2-hFc): 0.54 nM
- Kd (IL-12RB1-hFc): 0.13 nM

B2: IL-12p70 D42K (protein)
chain 1: MIWELKKDVYVVELDWYPDAPGEMVVLTCDTPEEDGITWTLKQSSEVLGSGKTLTIQVKEFGDAGQYTCHKGGEVLSHSLLLLHKKEDGIWSTDILKDQKEPKNKTFLRCEAKNYSGRFTCWWLTTISTDLTFSVKSSRGSSDPQGVTCGAATLSAERVRGDNKEYEYSVECQEDSACPAAEESLPIEVMVDAVHKLKYENYTSSFFIRDIIKPDPPKNLQLKPLKNSRQVEVSWEYPDTWSTPHSYFSLTFSVQVQGKSKREKKDRVFTDKTSATVICRKNASISVRAQDRYYSSSWSEWASVPCSGGGSHHHHHH
chain 2: MRNLPVATPDPGMFPSLHHSQNLLRAVSNMLQKARQTLEFYPCTSEEIDHEDITKDKTSTVEACLPLELTKNESCLNSRETSFITNGSSLASRKTSFMMALCLSSIYEDLKMYQVEFKTMNAKLLMDPKRQIFLDQNMLAVIDELMQALNFNSETVPQKSSLEEPDFYKTKIKLCILLHAFRIRAVTIDRVMSYLNAS
- Kd (IL-12RB2-hFc): 0.45 nM
- Kd (IL-12RB1-hFc): 0.03 nM

B3: IL-12p70 D88K (protein)
chain 1: MIWELKKDVYVVELDWYPDAPGEMVVLTCDTPEEDGITWTLDQSSEVLGSGKTLTIQVKEFGDAGQYTCHKGGEVLSHSLLLLHKKEKGIWSTDILKDQKEPKNKTFLRCEAKNYSGRFTCWWLTTISTDLTFSVKSSRGSSDPQGVTCGAATLSAERVRGDNKEYEYSVECQEDSACPAAEESLPIEVMVDAVHKLKYENYTSSFFIRDIIKPDPPKNLQLKPLKNSRQVEVSWEYPDTWSTPHSYFSLTFSVQVQGKSKREKKDRVFTDKTSATVICRKNASISVRAQDRYYSSSWSEWASVPCSGGGSHHHHHH
chain 2: MRNLPVATPDPGMFPSLHHSQNLLRAVSNMLQKARQTLEFYPCTSEEIDHEDITKDKTSTVEACLPLELTKNESCLNSRETSFITNGSSLASRKTSFMMALCLSSIYEDLKMYQVEFKTMNAKLLMDPKRQIFLDQNMLAVIDELMQALNFNSETVPQKSSLEEPDFYKTKIKLCILLHAFRIRAVTIDRVMSYLNAS
- Kd (IL-12RB2-hFc): 0.31 nM
- Kd (IL-12RB1-hFc): 0.02 nM

B4: IL-12p70 N104A (protein)
chain 1: MIWELKKDVYVVELDWYPDAPGEMVVLTCDTPEEDGITWTLDQSSEVLGSGKTLTIQVKEFGDAGQYTCHKGGEVLSHSLLLLHKKEDGIWSTDILKDQKEPKAKTFLRCEAKNYSGRFTCWWLTTISTDLTFSVKSSRGSSDPQGVTCGAATLSAERVRGDNKEYEYSVECQEDSACPAAEESLPIEVMVDAVHKLKYENYTSSFFIRDIIKPDPPKNLQLKPLKNSRQVEVSWEYPDTWSTPHSYFSLTFSVQVQGKSKREKKDRVFTDKTSATVICRKNASISVRAQDRYYSSSWSEWASVPCSGGGSHHHHHH
chain 2: MRNLPVATPDPGMFPSLHHSQNLLRAVSNMLQKARQTLEFYPCTSEEIDHEDITKDKTSTVEACLPLELTKNESCLNSRETSFITNGSSLASRKTSFMMALCLSSIYEDLKMYQVEFKTMNAKLLMDPKRQIFLDQNMLAVIDELMQALNFNSETVPQKSSLEEPDFYKTKIKLCILLHAFRIRAVTIDRVMSYLNAS
- Kd (IL-12RB2-hFc): 0.39 nM
- Kd (IL-12RB1-hFc): 0.05 nM
